Measurements published in publication PMC6994259 (Nature, 2020).

T1: Sgf73 (S. cerevisiae, UniProt P53165 1-657)
T1 sequence: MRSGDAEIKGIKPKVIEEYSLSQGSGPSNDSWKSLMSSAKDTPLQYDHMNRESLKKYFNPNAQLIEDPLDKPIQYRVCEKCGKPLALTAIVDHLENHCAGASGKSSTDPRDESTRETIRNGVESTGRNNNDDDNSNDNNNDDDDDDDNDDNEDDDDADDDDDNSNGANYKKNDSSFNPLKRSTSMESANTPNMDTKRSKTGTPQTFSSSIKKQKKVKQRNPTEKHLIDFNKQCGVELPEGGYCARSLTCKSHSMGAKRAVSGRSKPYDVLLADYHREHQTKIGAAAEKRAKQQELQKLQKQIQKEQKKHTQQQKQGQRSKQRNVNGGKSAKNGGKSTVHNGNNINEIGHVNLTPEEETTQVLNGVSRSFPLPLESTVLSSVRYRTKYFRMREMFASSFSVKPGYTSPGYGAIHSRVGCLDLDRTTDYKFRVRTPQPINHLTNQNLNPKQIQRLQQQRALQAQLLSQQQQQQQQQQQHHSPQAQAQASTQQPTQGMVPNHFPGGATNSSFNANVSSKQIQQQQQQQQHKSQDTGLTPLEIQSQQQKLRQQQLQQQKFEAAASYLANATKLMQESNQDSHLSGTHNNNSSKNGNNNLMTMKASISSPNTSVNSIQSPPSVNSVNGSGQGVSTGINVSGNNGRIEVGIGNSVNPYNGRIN

T2: Spt20 (S. cerevisiae, UniProt P50875 1-604)
T2 sequence: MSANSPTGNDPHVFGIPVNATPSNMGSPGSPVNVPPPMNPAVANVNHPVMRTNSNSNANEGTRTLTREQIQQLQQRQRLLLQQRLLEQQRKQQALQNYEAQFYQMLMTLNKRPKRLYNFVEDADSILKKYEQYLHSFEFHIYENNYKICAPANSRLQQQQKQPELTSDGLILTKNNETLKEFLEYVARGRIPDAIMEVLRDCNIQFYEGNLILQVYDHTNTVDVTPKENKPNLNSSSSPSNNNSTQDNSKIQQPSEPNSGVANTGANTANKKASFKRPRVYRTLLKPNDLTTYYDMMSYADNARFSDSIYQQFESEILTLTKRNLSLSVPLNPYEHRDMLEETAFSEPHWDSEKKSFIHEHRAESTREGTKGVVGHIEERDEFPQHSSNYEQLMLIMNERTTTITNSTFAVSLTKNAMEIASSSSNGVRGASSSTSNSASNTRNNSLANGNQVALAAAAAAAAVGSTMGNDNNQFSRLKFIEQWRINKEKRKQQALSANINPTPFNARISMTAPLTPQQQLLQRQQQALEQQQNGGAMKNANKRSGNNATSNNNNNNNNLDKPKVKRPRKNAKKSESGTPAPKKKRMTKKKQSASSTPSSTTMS

B1: Taf12 (natural protein)
chain: MSSNPENSGVNANNNTGTGNADAITGAQQNMVLQPRQLQEMAAKFRTLLTEARNVGETTPRGKELMFQAAKIKQVYDALTLNRRRQQAAQAYNNTSNSNSSNPASIPTENVPNSSQQQQQQQQQTRNNSNKFSNMIKQVLTPEENQEYEKLWQNFQVRHTSIKEKETYLKQNIDRLEQEINKQTDEGPKQQLQEKKIELLNDWKVLKIEYTKLFNNYQNSKKTFYVECARHNPALHKFLQESTQQQRVQQQRVQQQQQQQQQQQQQQQQQQQQQQQRQGQNQRKISSSNSTEIPSVTGPDALKSQQQQQNTITATNNPRGNVNTSQTEQSKAKVTNVNATASMLNNISSSKSAIFKQTEPAIPISENISTKTPAPVAYRSNRPTITGGSAMNASALNTPATTKLPPYEMDTQRVMSKRKLRELVKTVGIDEGDGETVIDGDVEELLLDLADDFVTNVTAFSCRLAKHRKSDNLEARDIQLHLERNWNIRIPGYSADEIRSTRKWNPSQNYNQKLQSITSDKVAAAKNNGNNVASLNTKK

Experiments:
Experiment in all cases: cryo-EM structure
Sgf73 = molecular target: T1, Sgf73
Taf12 = molecular target: B1
Spt20 = molecular target: T2, Spt20
Tra1 = Tra1 (S. cerevisiae, UniProt P38811 1-3744)
Tra1, sequence (P38811 whole entry): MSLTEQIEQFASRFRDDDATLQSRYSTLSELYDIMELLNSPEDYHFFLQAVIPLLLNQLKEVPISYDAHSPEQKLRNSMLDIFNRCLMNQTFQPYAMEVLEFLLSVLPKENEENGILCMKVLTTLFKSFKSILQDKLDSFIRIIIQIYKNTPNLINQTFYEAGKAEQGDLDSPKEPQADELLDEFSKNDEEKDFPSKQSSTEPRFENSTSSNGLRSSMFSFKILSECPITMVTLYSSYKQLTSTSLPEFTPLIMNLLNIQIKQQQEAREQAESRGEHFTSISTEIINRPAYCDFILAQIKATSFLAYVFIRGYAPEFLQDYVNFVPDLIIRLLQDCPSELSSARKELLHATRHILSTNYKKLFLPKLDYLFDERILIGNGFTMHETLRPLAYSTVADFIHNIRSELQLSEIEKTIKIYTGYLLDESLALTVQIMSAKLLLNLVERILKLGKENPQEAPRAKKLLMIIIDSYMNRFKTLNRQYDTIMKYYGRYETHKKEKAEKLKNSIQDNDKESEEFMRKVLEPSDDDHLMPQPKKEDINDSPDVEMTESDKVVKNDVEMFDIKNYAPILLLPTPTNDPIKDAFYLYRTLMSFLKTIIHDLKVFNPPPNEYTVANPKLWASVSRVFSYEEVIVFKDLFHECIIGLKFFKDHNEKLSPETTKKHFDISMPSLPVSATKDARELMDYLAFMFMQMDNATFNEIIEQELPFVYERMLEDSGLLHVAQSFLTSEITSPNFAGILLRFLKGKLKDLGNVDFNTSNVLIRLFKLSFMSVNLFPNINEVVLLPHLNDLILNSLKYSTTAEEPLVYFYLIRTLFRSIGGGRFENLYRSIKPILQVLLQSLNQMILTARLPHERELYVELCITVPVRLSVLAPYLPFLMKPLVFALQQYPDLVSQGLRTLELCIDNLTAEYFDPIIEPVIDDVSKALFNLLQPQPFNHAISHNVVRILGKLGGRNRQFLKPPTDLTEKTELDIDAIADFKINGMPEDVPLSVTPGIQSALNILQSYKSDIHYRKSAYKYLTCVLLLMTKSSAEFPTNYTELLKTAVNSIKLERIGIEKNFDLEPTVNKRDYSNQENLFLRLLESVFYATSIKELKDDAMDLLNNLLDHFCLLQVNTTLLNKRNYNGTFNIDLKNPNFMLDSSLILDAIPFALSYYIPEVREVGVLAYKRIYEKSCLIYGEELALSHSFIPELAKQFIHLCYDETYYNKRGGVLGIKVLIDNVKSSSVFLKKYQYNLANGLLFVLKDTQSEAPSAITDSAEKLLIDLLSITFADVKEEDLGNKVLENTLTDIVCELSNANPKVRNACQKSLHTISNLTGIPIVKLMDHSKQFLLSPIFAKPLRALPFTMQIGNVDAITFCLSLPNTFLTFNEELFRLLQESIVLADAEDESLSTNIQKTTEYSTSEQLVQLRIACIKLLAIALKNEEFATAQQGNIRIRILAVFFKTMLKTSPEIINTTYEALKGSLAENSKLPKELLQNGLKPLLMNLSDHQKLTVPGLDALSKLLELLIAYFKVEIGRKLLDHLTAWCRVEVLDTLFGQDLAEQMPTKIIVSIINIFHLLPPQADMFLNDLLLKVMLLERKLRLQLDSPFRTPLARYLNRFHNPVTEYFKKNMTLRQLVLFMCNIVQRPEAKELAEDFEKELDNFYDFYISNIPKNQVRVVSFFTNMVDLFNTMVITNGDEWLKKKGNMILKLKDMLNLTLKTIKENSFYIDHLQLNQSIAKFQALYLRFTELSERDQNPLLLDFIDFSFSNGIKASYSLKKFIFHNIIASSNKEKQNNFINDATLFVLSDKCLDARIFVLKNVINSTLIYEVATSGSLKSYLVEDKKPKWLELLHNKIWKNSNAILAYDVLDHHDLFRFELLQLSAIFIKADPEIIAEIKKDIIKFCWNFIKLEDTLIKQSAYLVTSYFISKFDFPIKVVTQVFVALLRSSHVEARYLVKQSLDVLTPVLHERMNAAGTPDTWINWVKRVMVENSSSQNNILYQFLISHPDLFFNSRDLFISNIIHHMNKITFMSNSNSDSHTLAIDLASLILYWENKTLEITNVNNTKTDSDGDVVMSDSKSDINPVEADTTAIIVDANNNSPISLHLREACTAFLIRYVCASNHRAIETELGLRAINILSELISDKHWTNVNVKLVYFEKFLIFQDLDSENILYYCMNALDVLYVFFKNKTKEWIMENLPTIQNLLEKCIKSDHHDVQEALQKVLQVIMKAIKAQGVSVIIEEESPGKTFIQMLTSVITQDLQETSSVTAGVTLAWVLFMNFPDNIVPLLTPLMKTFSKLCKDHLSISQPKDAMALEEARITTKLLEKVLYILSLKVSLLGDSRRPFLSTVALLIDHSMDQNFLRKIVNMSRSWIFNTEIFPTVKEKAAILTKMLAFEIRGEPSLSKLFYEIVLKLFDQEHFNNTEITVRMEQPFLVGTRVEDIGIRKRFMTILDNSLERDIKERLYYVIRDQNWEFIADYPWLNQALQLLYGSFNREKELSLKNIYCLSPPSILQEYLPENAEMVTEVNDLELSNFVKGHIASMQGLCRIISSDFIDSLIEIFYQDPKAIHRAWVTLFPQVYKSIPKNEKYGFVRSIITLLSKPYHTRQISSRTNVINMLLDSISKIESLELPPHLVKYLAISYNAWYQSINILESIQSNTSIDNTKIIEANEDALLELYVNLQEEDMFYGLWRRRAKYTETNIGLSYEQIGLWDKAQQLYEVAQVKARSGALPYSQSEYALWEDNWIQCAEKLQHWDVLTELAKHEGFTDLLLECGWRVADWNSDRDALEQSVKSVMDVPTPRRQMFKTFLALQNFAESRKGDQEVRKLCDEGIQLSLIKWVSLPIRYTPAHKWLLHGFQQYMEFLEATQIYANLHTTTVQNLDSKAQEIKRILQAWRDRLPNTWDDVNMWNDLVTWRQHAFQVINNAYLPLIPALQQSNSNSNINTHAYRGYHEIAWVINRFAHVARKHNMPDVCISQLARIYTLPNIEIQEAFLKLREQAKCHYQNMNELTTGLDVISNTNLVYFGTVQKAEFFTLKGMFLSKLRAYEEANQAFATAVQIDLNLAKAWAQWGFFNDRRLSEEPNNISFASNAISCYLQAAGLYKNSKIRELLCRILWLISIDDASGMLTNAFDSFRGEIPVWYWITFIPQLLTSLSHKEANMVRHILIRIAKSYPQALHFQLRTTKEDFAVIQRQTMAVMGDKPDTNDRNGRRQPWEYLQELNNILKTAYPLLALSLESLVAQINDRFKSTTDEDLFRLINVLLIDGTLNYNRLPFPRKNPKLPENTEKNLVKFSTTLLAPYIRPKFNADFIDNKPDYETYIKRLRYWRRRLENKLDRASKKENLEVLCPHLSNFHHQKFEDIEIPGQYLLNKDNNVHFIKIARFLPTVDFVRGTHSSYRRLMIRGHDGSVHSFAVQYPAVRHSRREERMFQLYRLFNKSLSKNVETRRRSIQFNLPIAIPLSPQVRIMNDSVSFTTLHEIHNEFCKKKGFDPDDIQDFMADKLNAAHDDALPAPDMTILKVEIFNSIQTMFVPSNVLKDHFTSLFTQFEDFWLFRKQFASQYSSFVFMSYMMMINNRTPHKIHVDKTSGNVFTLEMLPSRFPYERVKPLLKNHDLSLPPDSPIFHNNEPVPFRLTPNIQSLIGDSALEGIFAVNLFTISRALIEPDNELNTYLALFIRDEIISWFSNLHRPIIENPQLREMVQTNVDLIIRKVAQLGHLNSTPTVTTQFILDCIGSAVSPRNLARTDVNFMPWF

binding result (Sgf73) | binding result (Taf12) | binding result (Spt20) | binding result (Tra1) | Binder
binds | binds | – | – | Ada1 (natural protein) MSAIQSPAPKPLQPTYPAASPASTNAYMKPGLIGSPAVSNHTEPNNGNNETAEPQGPNQRIDLGAMIEELTSLLGKESWTKYAQIISLFILGKLSRKELSNELELVFSPSAASLEKSNTNHHHSLVRLHNQLLLGIFANSLRENPLGRNGNESSWGFGNGSNNPNNKLKRINKHNSQIEVYKKIVMSLPLNDRNRLKMITKEAGKRGFIFCSVFQARLNNIPKIPIVTNPESLKRVKSNNLKTPLEWSQDIMNGFNVPLASESHSLPDTDSFYLRMVGIAREHGLVGTVDARCVELISLALDQYLKNIIEFTIDTVRYRRKKYSDYYDLNESGLYKSVSEMAADKRDAKIKQLDDDKNEDECADEAKSINNGNNSSKDDIGDISMSSITKAGEAVNEELHENRTISLTNEDIYDSLSIFPNLVEPSGSYYALTNLGLVNDDELVDMKSNIDDLPDFLNEKPTFTPLDERNVGTRHELNWLIKGILTED
binds | – | binds | binds | B1
